Molecular target: cp283Δ8, cp283 with an eight-amino acid deletion in the loop connecting the native termini (Candida antarctica)
Test: SEC

stoichiometry N: 3
Substance: cp283Δ8, cp283 with an eight-amino acid deletion in the loop connecting the native termini (enzyme)

From publication PMC2753740
